Assay results as given in the supplement of paper PMC10065799, “High-throughput profiling of sequence recognition by tyrosine kinases and SH2 domains using bacterial peptide display” (eLife, 2023).

Legend:
[1] = target: c-Src SH2; assay: SH2 binding enrichment of the phosphorylated peptide, bacterial display (enrichment ratio); higher = better substrate or ligand; peptides without Tyr show the background
[2] = target: Grb2 SH2 (UniProt P62993); assay: as above
[3] = target: SHP2-C SH2; assay: as above
[4] = target: Hck (UniProt P08631); assay: phosphorylation enrichment, bacterial display (enrichment ratio); higher = better substrate or ligand; peptides without Tyr show the background
[5] = target: EPHB2 (UniProt P29323); assay: as above
[6] = tested on: AncSZ; assay: as above
[7] = target: Jak2 (UniProt O60674); assay: as above
[8] = target: FGFR3 (UniProt P22607); assay: as above
[9] = target: MERTK (UniProt Q12866); assay: as above
[10] = tested on: c-Src; assay: as above
[11] = target: FGFR1 (UniProt P11362); assay: as above
[12] = target: Fes (UniProt P07332); assay: as above
[13] = target: EPHB1 (UniProt P54762); assay: as above
[14] = tested on: Fer (mouse); assay: as above
[15] = target: Fyn (UniProt P06241); assay: as above
[16] = tested on: c-Abl (mouse); assay: as above
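Throughout, for SH2 binding enrichment of the phosphorylated peptide, bacterial display: peptide library displayed on the E. coli surface as eCPX fusions, selected cells deep-sequenced, score is each peptide's frequency after selection divided by its frequency in the input.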
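Throughout, for phosphorylation enrichment, bacterial display: 11-residue human phosphosite peptides and single-mutation variants displayed on the E. coli surface, counted by deep sequencing, each peptide's frequency after selection divided by its frequency in the unselected input library; frequency after pTyr selection over input frequency; kinase dosed for 20-30% of maximal phosphorylation in three min.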

Sequence of Fyn (P06241 whole entry, looked up): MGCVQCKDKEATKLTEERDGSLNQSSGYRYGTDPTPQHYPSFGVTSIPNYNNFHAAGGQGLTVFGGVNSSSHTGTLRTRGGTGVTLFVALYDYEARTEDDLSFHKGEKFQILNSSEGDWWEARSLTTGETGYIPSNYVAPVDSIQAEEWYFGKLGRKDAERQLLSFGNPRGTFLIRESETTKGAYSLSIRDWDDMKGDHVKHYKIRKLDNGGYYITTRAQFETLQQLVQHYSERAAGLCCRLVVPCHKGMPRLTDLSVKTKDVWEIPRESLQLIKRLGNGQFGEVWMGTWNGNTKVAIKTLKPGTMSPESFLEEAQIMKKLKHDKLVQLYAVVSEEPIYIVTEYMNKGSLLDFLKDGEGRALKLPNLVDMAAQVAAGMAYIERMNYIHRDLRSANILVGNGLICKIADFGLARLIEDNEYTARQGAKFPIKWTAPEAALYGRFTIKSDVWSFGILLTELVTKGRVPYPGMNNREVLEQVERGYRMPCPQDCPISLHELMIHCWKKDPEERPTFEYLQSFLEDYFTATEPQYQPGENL
Sequence of Grb2 SH2 (P62993 whole entry, looked up): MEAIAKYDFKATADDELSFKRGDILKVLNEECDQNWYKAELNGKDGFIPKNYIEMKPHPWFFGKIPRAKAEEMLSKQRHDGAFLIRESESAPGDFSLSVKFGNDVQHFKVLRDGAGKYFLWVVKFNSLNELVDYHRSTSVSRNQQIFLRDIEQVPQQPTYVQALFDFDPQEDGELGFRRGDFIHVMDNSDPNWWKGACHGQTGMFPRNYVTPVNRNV
Sequence of Hck (P08631 whole entry, looked up): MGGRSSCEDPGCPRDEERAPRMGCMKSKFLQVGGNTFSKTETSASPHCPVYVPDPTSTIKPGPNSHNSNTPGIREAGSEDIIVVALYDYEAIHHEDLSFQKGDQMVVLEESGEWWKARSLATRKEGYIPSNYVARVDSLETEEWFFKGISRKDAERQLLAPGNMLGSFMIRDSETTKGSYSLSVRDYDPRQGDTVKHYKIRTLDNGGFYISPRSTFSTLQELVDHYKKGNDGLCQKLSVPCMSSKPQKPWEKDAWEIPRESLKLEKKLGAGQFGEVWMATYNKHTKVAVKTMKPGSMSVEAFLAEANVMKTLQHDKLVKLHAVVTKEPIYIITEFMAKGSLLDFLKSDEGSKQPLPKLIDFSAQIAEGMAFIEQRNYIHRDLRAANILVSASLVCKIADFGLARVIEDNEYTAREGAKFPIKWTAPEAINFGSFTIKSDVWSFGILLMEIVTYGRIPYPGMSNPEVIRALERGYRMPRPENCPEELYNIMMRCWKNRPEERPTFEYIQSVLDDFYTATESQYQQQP
Sequence of MERTK (Q12866 whole entry, looked up): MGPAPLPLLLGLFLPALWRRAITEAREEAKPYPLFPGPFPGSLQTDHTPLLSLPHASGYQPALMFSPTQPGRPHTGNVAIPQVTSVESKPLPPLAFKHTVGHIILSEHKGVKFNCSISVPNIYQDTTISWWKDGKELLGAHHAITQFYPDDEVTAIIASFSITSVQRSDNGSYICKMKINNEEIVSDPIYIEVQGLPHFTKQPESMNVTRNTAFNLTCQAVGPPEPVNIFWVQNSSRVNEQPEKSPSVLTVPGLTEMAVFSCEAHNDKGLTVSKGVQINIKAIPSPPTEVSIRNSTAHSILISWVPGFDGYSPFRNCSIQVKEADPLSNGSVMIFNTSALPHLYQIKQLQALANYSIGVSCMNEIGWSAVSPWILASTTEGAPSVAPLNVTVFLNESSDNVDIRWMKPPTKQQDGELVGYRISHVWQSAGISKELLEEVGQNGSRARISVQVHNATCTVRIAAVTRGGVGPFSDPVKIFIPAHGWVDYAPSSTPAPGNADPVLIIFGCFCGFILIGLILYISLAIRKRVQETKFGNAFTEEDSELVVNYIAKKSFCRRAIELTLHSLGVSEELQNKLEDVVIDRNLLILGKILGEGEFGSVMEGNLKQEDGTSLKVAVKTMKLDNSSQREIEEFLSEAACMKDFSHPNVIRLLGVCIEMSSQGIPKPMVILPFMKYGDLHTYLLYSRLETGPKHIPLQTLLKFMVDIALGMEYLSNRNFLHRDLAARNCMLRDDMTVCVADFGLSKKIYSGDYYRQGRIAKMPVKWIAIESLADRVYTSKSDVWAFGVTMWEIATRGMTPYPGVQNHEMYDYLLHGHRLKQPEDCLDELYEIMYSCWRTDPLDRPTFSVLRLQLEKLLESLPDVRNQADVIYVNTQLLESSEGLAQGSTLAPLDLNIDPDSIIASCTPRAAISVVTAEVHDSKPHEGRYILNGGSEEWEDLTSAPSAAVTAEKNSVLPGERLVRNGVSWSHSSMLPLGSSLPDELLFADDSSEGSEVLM
Sequence of Jak2 (O60674 whole entry, looked up): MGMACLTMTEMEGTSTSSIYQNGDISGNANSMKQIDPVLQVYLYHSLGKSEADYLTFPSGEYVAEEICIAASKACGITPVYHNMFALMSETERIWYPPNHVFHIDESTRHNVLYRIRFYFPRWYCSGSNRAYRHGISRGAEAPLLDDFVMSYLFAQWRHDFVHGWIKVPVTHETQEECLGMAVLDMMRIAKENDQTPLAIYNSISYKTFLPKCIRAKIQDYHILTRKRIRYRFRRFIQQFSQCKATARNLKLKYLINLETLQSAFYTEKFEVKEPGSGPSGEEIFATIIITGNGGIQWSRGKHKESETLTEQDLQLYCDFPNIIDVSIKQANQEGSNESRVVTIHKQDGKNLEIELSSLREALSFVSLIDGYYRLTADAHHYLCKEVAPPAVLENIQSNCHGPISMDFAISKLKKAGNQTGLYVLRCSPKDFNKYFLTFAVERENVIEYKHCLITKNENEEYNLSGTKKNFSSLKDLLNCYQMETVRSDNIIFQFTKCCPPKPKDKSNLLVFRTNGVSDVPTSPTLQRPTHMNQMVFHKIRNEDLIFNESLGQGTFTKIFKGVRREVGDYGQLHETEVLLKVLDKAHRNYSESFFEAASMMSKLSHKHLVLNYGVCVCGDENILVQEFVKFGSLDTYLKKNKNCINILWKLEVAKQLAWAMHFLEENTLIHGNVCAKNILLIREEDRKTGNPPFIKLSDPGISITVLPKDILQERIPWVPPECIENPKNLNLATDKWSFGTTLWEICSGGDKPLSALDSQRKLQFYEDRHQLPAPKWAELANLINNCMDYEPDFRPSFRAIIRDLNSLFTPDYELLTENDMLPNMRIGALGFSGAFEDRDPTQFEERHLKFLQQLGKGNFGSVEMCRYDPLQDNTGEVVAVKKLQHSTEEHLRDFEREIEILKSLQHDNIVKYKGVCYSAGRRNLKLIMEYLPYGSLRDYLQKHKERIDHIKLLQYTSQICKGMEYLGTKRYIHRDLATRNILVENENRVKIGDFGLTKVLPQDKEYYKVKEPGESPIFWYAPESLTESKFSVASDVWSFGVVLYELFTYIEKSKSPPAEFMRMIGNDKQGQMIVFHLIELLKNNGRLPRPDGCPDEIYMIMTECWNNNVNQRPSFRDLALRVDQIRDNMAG
Sequence of FGFR1 (P11362 whole entry, looked up): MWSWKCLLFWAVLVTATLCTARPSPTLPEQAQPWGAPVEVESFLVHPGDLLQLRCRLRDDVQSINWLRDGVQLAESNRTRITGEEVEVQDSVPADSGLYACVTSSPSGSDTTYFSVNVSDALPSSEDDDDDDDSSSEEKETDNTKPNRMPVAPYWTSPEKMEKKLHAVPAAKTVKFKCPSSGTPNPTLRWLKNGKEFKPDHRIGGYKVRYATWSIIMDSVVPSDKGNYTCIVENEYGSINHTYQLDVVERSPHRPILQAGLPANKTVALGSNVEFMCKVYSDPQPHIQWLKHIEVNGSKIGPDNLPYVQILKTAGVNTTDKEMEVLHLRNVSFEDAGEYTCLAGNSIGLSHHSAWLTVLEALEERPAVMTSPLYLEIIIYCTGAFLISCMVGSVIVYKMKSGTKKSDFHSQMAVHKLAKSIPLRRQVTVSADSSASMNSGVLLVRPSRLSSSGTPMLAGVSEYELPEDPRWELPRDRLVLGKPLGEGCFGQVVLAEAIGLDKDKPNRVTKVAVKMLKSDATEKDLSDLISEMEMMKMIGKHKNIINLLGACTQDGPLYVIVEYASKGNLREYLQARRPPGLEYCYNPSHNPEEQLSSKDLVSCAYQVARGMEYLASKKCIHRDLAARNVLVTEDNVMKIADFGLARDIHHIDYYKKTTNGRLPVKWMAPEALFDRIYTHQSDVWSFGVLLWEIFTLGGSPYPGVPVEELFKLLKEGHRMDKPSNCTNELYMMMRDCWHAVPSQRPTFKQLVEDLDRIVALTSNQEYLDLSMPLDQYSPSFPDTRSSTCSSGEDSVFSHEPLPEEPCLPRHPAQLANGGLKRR
Sequence of FGFR3 (P22607 whole entry, looked up): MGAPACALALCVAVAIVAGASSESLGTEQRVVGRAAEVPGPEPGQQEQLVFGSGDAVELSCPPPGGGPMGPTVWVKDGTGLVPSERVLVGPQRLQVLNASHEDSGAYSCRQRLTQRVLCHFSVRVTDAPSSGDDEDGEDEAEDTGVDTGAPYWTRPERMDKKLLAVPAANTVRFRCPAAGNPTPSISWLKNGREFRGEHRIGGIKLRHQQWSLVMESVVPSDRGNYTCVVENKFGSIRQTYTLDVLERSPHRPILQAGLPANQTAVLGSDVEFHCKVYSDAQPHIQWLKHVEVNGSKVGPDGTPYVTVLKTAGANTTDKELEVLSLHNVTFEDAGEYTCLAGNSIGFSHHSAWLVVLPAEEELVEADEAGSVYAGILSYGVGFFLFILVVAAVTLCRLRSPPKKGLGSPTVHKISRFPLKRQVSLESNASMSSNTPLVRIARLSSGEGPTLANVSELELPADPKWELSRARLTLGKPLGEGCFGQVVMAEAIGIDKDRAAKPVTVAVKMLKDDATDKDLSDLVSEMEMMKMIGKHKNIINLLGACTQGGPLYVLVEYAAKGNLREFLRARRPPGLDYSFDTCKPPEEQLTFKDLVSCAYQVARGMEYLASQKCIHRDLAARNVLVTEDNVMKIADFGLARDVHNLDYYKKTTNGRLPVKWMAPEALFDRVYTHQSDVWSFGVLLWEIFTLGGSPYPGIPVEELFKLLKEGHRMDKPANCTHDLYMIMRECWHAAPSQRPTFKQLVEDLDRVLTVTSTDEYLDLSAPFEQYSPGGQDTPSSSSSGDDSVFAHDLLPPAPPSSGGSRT

| Sequence | SH2 binding enrichment [1] | SH2 binding enrichment [2] | SH2 binding enrichment [3] | phosphorylation enrichment [4] | phosphorylation enrichment [5] | phosphorylation enrichment [6] | phosphorylation enrichment [7] | phosphorylation enrichment [8] | phosphorylation enrichment [9] | phosphorylation enrichment [10] | phosphorylation enrichment [11] | phosphorylation enrichment [12] | phosphorylation enrichment [13] | phosphorylation enrichment [14] | phosphorylation enrichment [15] | phosphorylation enrichment [16] |
| --- | --- | --- | --- | --- | --- | --- | --- | --- | --- | --- | --- | --- | --- | --- | --- | --- |
| LTERGYSFTTT [ACTB_Y198] | 0.596 | 0.746 | 0.654 | 0.432 | 0.492 | 0.837 | 0.756 | 0.78 | 0.408 | 0.46 | 0.504 | 0.758 | 0.472 | 0.554 | 0.456 | 0.586 |
| LTERGYSFVTT [ACTA1_Y200] | 7.8 | 0.794 | 6.24 | 0.708 | 0.95 | 1.4 | 1.1 | 1.17 | 0.769 | 0.657 | 0.927 | 1.41 | 0.796 | 0.823 | 0.582 | 0.941 |
| LTSKPYAFTAQ [NDUFS1_Y236_R241Q] | 0.692 | 0.89 | 0.906 | 0.363 | 0.471 | 0.542 | 0.625 | 0.371 | 0.411 | 0.345 | 0.445 | 0.696 | 0.469 | 0.524 | 0.489 | 0.521 |
| LTVVIYVLVGR [EPHA3_Y561_I564V] | 2.03 | 3.76 | 4.03 | 0.168 | 0.251 | 1.16 | 0.391 | 0.44 | 0.479 | 0.183 | 0.54 | 0.63 | 0.26 | 0.348 | 1.12 | 0.81 |
| LVMFFYAIFGM [SCN1A_Y1684_I1683F] | 1.44 | 1.58 | 2.64 | 0.446 | 0.566 | 1.35 | 1.06 | 1.34 | 0.84 | 0.524 | 0.898 | 1.23 | 0.608 | 0.708 | 0.789 | 0.937 |
| LVMFISAIFGM [SCN1A_Y1684_Y1684S] | 0.893 | 1.39 | 0.842 | 0.804 | 1.07 | 1.69 | 1.77 | 1.46 | 0.722 | 0.922 | 1.15 | 2.05 | 1.1 | 1.33 | 0.788 | 1.36 |
| LYEDHYLLGTS [ASS1_Y87_R86H] | 0.571 | 0.9 | 0.565 | 1.19 | 3.05 | 1.66 | 2.17 | 0.972 | 2.08 | 2.73 | 0.689 | 1.37 | 12.3 | 16.1 | 1.86 | 1.1 |
| LYSGDCYRIQG [DDR2_Y740_Y740C] | 0.522 | 0.828 | 0.701 | 1.16 | 1.3 | 1.05 | 1.04 | 1.11 | 6.98 | 1.22 | 0.956 | 1.18 | 1.8 | 0.73 | 1.18 | 0.808 |
| LYSGDYYRIQG [DDR2_Y740] | 0.984 | 1.02 | 0.531 | 10.4 | 30.3 | 7.93 | 23.8 | 26 | 19.3 | 10.5 | 32.7 | 1.83 | 29.2 | 1.81 | 11.5 | 7.77 |
| LYSINYLHFGE [KDM4C_Y201] | 1.31 | 1.54 | 2.6 | 3.5 | 9.01 | 2.05 | 1.1 | 3.52 | 11 | 2.56 | 3.6 | 1.57 | 10.7 | 11.1 | 3.5 | 2.08 |
| MASTSYDYCRV [BST2_Y6] | 1.79 | 0.904 | 0.671 | 0.905 | 3.51 | 1.11 | 0.687 | 0.851 | 0.904 | 0.577 | 1.27 | 0.68 | 4.88 | 2.69 | 0.481 | 0.956 |
| MAYDRYVAICS [OR8D4_Y123_C120Y] | 0.98 | 0.766 | 0.713 | 0.745 | 2.12 | 1.01 | 1.15 | 0.753 | 0.77 | 0.762 | 0.603 | 1.01 | 1.28 | 0.547 | 0.486 | 1.03 |
| MCITQYKRESQ [PRNP_Y218_E219K] | 0.957 | 0.897 | 1.08 | 0.433 | 0.587 | 0.875 | 0.736 | 0.606 | 0.475 | 0.42 | 0.443 | 0.837 | 0.384 | 0.501 | 0.519 | 0.454 |
| MDNQEYKDAYK [BRDT_Y331] | 0.499 | 0.814 | 1.05 | 0.474 | 0.402 | 0.932 | 0.901 | 0.652 | 0.445 | 0.368 | 0.485 | 1.12 | 0.546 | 0.456 | 0.417 | 0.677 |
| MECLPYGSLRD [JAK2_Y934_Y931C] | 0.467 | 0.785 | 0.468 | 0.711 | 0.577 | 1.08 | 1.07 | 0.794 | 0.409 | 1.65 | 0.522 | 1.29 | 0.598 | 0.669 | 0.753 | 0.75 |
| MFCASYDTKQE [F10_Y407_G406S] | 0.733 | 0.774 | 0.749 | 0.554 | 0.717 | 1.01 | 0.986 | 0.746 | 0.552 | 0.511 | 0.561 | 1.17 | 0.536 | 0.571 | 0.558 | 0.731 |
| MFRAGYDTKQE [F10_Y407_C404R] | 0.5 | 0.796 | 0.872 | 0.383 | 0.447 | 0.671 | 0.589 | 0.448 | 0.335 | 0.332 | 0.379 | 0.761 | 0.475 | 0.391 | 0.395 | 0.497 |

| Sequence | SH2 binding enrichment [1] | SH2 binding enrichment [2] | SH2 binding enrichment [3] | phosphorylation enrichment [4] | phosphorylation enrichment [5] | phosphorylation enrichment [6] | phosphorylation enrichment [7] | phosphorylation enrichment [8] | phosphorylation enrichment [9] | phosphorylation enrichment [10] | phosphorylation enrichment [11] | phosphorylation enrichment [12] | phosphorylation enrichment [13] | phosphorylation enrichment [14] | phosphorylation enrichment [15] | phosphorylation enrichment [16] |
| --- | --- | --- | --- | --- | --- | --- | --- | --- | --- | --- | --- | --- | --- | --- | --- | --- |
| MGRVKYGAFIN [GLB1_Y485_N484K_YF] | 1.23 | 1.62 | 1.59 | 0.439 | 0.376 | 0.566 | 0.528 | 0.453 | 0.443 | 0.458 | 0.402 | 0.701 | 0.368 | 0.348 | 0.382 | 0.532 |
| MHFSNYVSKGS [PDGFRA_Y849_D846Y_YF] | 0.551 | 0.831 | 0.578 | 0.457 | 0.439 | 0.522 | 0.489 | 0.565 | 0.381 | 0.384 | 0.394 | 0.578 | 0.604 | 0.367 | 0.495 | 0.406 |
| MKKKIYAMGGG [GAN_Y424] | 0.679 | 1.15 | 0.979 | 0.414 | 0.302 | 0.397 | 0.39 | 0.341 | 0.432 | 0.393 | 0.376 | 0.465 | 0.335 | 0.389 | 0.297 | 0.519 |
| MKNDLYQTPLH [NFKB1_Y582_R578K] | 0.585 | 0.774 | 0.604 | 4.13 | 1.11 | 1.4 | 0.727 | 0.502 | 1.81 | 1.63 | 0.473 | 0.695 | 0.668 | 2.2 | 1.16 | 5.91 |
| MKSIKYMDKEV [CCDC60_Y41_I46V] | 0.413 | 0.742 | 0.515 | 0.399 | 0.316 | 0.664 | 0.567 | 0.545 | 0.334 | 0.375 | 0.437 | 0.554 | 0.325 | 0.355 | 0.344 | 0.492 |
| MNPPPYSQFLS [FGF23_Y154] | 0.541 | 0.742 | 0.489 | 0.511 | 0.44 | 0.585 | 0.687 | 0.567 | 0.543 | 1.38 | 0.508 | 0.706 | 0.467 | 0.711 | 0.478 | 0.536 |
| MPIPMYDASQA [CARMIL1_Y637] | 0.537 | 0.887 | 0.75 | 0.552 | 1.01 | 0.751 | 0.717 | 0.629 | 0.566 | 0.46 | 0.595 | 0.73 | 0.867 | 0.565 | 0.643 | 0.824 |
| MPIPMYDGSQA [CARMIL1_Y637_A639G] | 0.452 | 0.746 | 0.53 | 0.53 | 0.634 | 0.623 | 0.963 | 0.532 | 0.447 | 0.44 | 0.434 | 0.777 | 1.1 | 0.402 | 0.52 | 0.639 |
| MRAIIYNSSTA [PLEKHA7_Y243_L241I] | 0.456 | 0.679 | 0.665 | 0.501 | 0.609 | 0.812 | 0.765 | 0.623 | 0.47 | 0.447 | 0.554 | 0.838 | 0.473 | 0.528 | 0.509 | 1.04 |
| NAPNSYGRRPS [CDKN2A_Y44_I49S] | 0.747 | 0.774 | 0.533 | 0.512 | 0.593 | 0.805 | 0.711 | 0.541 | 0.499 | 0.49 | 0.46 | 0.849 | 0.481 | 0.588 | 0.582 | 0.63 |
| NFDRVYIYHLR [MYOF_Y1137] | 0.896 | 1.23 | 5.25 | 0.782 | 0.618 | 1.19 | 1.03 | 0.755 | 0.528 | 1.01 | 0.575 | 1.23 | 0.593 | 0.612 | 0.858 | 0.718 |
| NFGTNYRVGSS [CPO_Y278_K273N_YF] | 0.418 | 0.88 | 0.634 | 0.482 | 0.515 | 0.602 | 0.534 | 0.424 | 0.42 | 0.442 | 0.508 | 0.716 | 0.417 | 0.429 | 0.43 | 0.525 |
| NGQALYAACQT [XDH_Y1092_V1091L] | 0.456 | 0.782 | 0.787 | 4.99 | 9.92 | 0.775 | 0.687 | 0.562 | 6.34 | 3.35 | 0.554 | 0.916 | 9.24 | 6.91 | 3.2 | 2.26 |
| NIQKKYFRAIL [CHD7_Y1217_YF] | 0.566 | 0.96 | 0.838 | 0.421 | 0.383 | 0.625 | 0.718 | 0.433 | 0.458 | 0.335 | 0.436 | 0.655 | 0.37 | 0.399 | 0.352 | 0.43 |
| NIWDSYTTNKV [GNB1_Y85_I80N] | 0.425 | 0.983 | 0.709 | 0.497 | 0.488 | 1 | 0.663 | 0.658 | 0.387 | 0.437 | 0.497 | 0.9 | 0.515 | 0.414 | 0.416 | 0.656 |
| NKFTTYLPWLP [C9orf24_Y126_R129W_YF] | 0.815 | 1.19 | 0.89 | 8.27 | 6.61 | 1.04 | 1.75 | 1.25 | 1.4 | 4.54 | 1.43 | 1.06 | 3.63 | 6.84 | 5.73 | 1.6 |
